Consider two molecules from patent US20110135636A1 (SYMPHOGEN A S, published 2011).

The target in test [1] is T1, Cynomolgus EGFR extracellular domain (Cynomolgus monkey (Macaca fascicularis), UniProt P55245 25-645 (rhesus entry)).
T1 construct: Cloned without signal peptide; also called Cynomolgus rEGFR ECD; Cynomolgus EGFR ECD
Description: ELISA on cynomolgus EGFR ECD (Example 10). On the procedure:
To verify that tested Anti-EGFR antibodies bound equally well to both Human and Cynomolgus EGFR ECD and accordingly warranting toxicology studies in Cynomolgus monkeys, serial four fold dilutions of antibodies beginning from 1 μg/ml were tested by ELISA for binding to recombinant Human and Cynomolgus EGFR ECD proteins. […] ELISA wells were coated with 50 μl/well of full length EGFR at a concentration of 1 μg/ml in PBS overnight at 4° C. The next morning wells were washed twice with PBS-T and blocked for one hour with 100 μl PBS-T-1% BSA at room temperature, followed by wash twice in PBS-T. Next 50 μl of serially diluted Anti-EGFR antibodies and control antibodies were added to wells and incubated for one hour at room temperature. After antibody incubation wells were washed five times with PBS-T, followed by incubation with 50 μl/well Streptavidin-HRP secondary reagent diluted 1:3000 in blocking buffer and incubation at room temperature for 30 min. Finally wells were washed five times with PBS-T and plates were developed by adding 50 μL/well TMB substrate and incubated at room temperature. After incubation the reaction was stopped by addition of 1 M H₂SO₄; 100 μl/well and plates were read at OD 450 nm.
Background: In an ELISA, binding on a coated surface is turned into a signal by an enzyme label.

Test [2] has as its target T2, recombinant human EGFR extracellular domain with 6xHis (human, UniProt P00533 25-645).
T2 construct: In-house produced; also called 6xHis EGFR ECD; soluble human EGFR ECD; not shown: 6xHis tag
The test can be described thus: SPR (Biacore 3000) on captured 6xHis EGFR ECD. For orientation: SPR reads the build-up and loss of mass on a sensor chip optically.

Test [3] addresses T3, EGFR-Fc (recombinant EGFR ECD-Fc chimera, R&D Systems 344-ER) (human, UniProt P00533 25-645).
T3 construct: extracellular domain; Bought; also called immobilized Human EGFR ECD; immobilized receptor; not shown: human IgG Fc
The test can be described thus: SPR (BIAcore 2000); Fab over immobilized EGFR ECD-Fc.

Test [4] concerns the target T3, EGFR-Fc (recombinant EGFR ECD-Fc …). The test can be described thus: SPR (BIAcore 2000); Fab over immobilized EGFR ECD-Fc against IgG with soluble EGFR ECD.
In test [5] the target is T4, full length human EGFR expressed on the cell surface (human, UniProt P00533 25-1210).
T4 construct: whole, on cells; also called EGFR on A431-NS cells; EGFR on HN5 cells
Description: cell ELISA, Fab titrated on paraformaldehyde-fixed A431-NS cells. How it is done: (§1) Cell ELISA: The relative binding affinities defined as the molar concentration giving the half maximal OD (ED50) were determined by antibody titrations on A431-NS cells. Briefly, 10,000 A431-NS cells were grown in 96 well ELISA plates containing DMEM with added 0.5% FCS and 1% P/S at 37° C., 5% CO₂ overnight. […] Then 50 μl of a secondary Goat-anti-Human (Fab specific) HRP conjugate diluted 1:5000 in DMEM containing 1% BSA was added and incubated on ice for 30 min. Finally wells were washed four times with PBS and plates developed by adding 50 μl/well TMB Plus substrate and read at 620 nm every 5-15-30 min. After incubation with substrate the reaction was stopped by addition of 1 M H₂SO₄ and absorbance read at 450 nm. The functional affinity expressed as ED50 values were calculated by subtraction of the average background binding with secondary reagent only, followed by normalization of the binding curves by plotting % maximal binding relative to each antibody tested.

Test [6] addresses T4, full length human EGFR expressed on the …. The test can be described thus: cell ELISA, Fab on A431-NS cells. How it is done:
as §1

Test [7] deals with T5, wild type full length EGFR purified from A431 cells (human, UniProt P00533 25-1210).
T5 construct: mature; Bought; coated on ELISA wells; also called full length EGFR receptor antigen; Sigma E3641
Description: indirect ELISA, Fab on coated purified full length EGFR.

For test [8], the target named is T4, full length human EGFR expressed on the …. Description: cell ELISA, Fab titrated on paraformaldehyde-fixed A431-NS cells; given as ED50. On the procedure: as §1

B1: antibody 1229 (antibody, human IgG1, kappa, V domains shown)
VH: QVQLKESGPGLVAPSQSLSITCSVSGFSLTIYGVHWVRQPPGKGLEWLGVMWAGGNTDYNSALMSRLNISKDNSKSQVFLKVNSLQTDDTAMYYCTRDPDGYYVGWFFDVWGAGTTVTVSS
VL: DIVMTQSHKFMSTSVGDRVSITCKASQDVTNAVAWYQQKPGQSPKLLIYWASIRHTGVPDRFTGSRSGTDYTLTINSVQAEDLALYYCQQHYNTPLTFGAGTKLEIKR
notes: Chimeric IgG1 kappa
As for B1, the binding result was “no binding” in test [1] and “no binding (tested: 40 ug/ml)” in test [2].

B2: Fab 1030 (Fab, V domains shown, not shown: small tags and cut ends)
VH: EVQLVESGGGLVKPGGSLKLSCAASGFTFSSYALSWVRQTPERRLEWVASISGVGSTYFPDSVKGRFTMSRDNARNILYLQMSSLRSEDTAMYYCARGSDGYFYAMDYWGQGTSVTVS
VL: DIVLTQSPASLAVSLGQRATISCRASKSVSTSGYSFMHWYQLKPGQPPKLLIYLASNLESGVPARFSGSGSGTDFTLNIHPVEEEDAATYYCQHSREFPLTFGGGTKLEIKR
The term Kd denotes the concentration at which binding is half-saturated. The koff is the rate constant with which the complex falls apart. As usually defined, the kon is the second-order rate constant of association. A word on the EC50 (read off the curve): it is the concentration that produces a half-maximal response. What is called EC50 is the concentration needed to bring the measured effect to its halfway point. In the case of B2, in test [3], the dissociation constant Kd came out at 2.3 nM, the dissociation rate constant (koff) was 0.0002 s⁻¹, the kon was found to be 87000 M⁻¹ s⁻¹ and the “t1/2” value turned out to be 57.5 min. Moreover, the “fold higher affinity against immobilized antigen than against soluble receptor” value in test [4] came to 10 fold. The “Log ED50” value in test [5] was determined as 0.27. Also, the “EC50 (read off the curve)” value in test [6] is roughly 1 nM. Further, in test [7], the half-maximal effective concentration (EC50 (read off the curve)) was roughly 4 nM. The molecule also had an EC50 in test [8] of 1.8 nM.
